According to the supplement of paper PMC6755084:

Test system: F1*sub RNA substrate (template-directed ligation)
Assay: fraction ligated after 30 min (ligated reads / total reads); higher = more ligase activity; sequences stand for … in GAGACCGCAACTGAAAAGTTGT…AGTTCTGCACGTAGAAGCAAAAGGC
Settings: 42 °C
Method in brief: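 Ligase ribozyme variants were made from oligo-pool templates by PCR amplification, T7 transcription and gel purification. After gel separation, ligated and unligated bands were reverse transcribed with barcoded primers and sequenced on a MiSeq, with core bases filtered at quality ≥20. The fraction ligated for each variant was the number of ligated reads divided by total reads.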

Sequence | fraction ligated
TACCTTGTCGTAAGACACTTTGGATGGGTTA [3d545] | 0.548
TACCTTGTCGTAAGACACTTTGGATGGGTTG [3d546] | 0.719
TACCTTGTCGTAAGACACTTTGGATGGGTTGA [2d48] | 0.772
TACCTTGTCGTAAGACACTTTGGATGGTTGA [3d544] | 0.233
TACCTTGTCGTAAGACACTTTGGTGGGTTGA [3d542] | 0.744
TACCTTGTCGTAAGACATTTGGATGGGTTGA [3d539] | 0.749
TACCTTGTCGTAAGACCTTTGGATGGGTTGA [3d538] | 0.734
TACCTTGTCGTAAGCACTTTGGATGGGTTGA [3d536] | 0.668
TACCTTGTCGTAGACACTTTGGATGGGTTGA [3d534] | 0.697
TACCTTGTCTAAGACACTTTGGATGGGTTGA [3d532] | 0.685
TACCTTGTGTAAGACACTTTGGATGGGTTGA [3d531] | 0.795
TACCTTTCGTAAGACACTTTGGATGGGTTGA [3d529] | 0.435
TACTTGTCGTAAGACACTTTGGATGGGTTGA [3d2] | 0.486
TATACGTCGTAAGACACTTTGGATGGGTTGA [3d777] | 0.735
TATACTGCGTAAGACACTTTGGATGGGTTGA [3d779] | 0.779
TATACTGTCGAAGACACTTTGGATGGGTTGA [3d782] | 0.71
TATACTGTCGTAAACACTTTGGATGGGTTGA [3d784] | 0.721
TATACTGTCGTAAGAACTTTGGATGGGTTGA [3d786] | 0.809
TATACTGTCGTAAGACACTTGGATGGGTTGA [3d789] | 0.803
TATACTGTCGTAAGACACTTTGATGGGTTGA [3d790] | 0.743
TATACTGTCGTAAGACACTTTGGAGGGTTGA [3d792] | 0.042
TATACTGTCGTAAGACACTTTGGATGGGTTA [3d794] | 0.0511
TATACTGTCGTAAGACACTTTGGATGGGTTG [3d795] | 0.683

Sequence | fraction ligated
TATACTGTCGTAAGACACTTTGGATGGGTTGA [2d71] | 0.797
TATACTGTCGTAAGACACTTTGGATGGTTGA [3d793] | 0.132
TATACTGTCGTAAGACACTTTGGTGGGTTGA [3d791] | 0.0244
TATACTGTCGTAAGACATTTGGATGGGTTGA [3d788] | 0.756
TATACTGTCGTAAGACCTTTGGATGGGTTGA [3d787] | 0.765
TATACTGTCGTAAGCACTTTGGATGGGTTGA [3d785] | 0.759
TATACTGTCGTAGACACTTTGGATGGGTTGA [3d783] | 0.757
TATACTGTCTAAGACACTTTGGATGGGTTGA [3d781] | 0.651
TATACTGTGTAAGACACTTTGGATGGGTTGA [3d780] | 0.8
TATACTTCGTAAGACACTTTGGATGGGTTGA [3d778] | 0.724
TATACTTGCGAAGACACTTTGGATGGGTTGA [3d814] | 0.649
TATACTTGCGTAAACACTTTGGATGGGTTGA [3d816] | 0.464
TATACTTGCGTAAGAACTTTGGATGGGTTGA [3d818] | 0.768
TATACTTGCGTAAGACACTTGGATGGGTTGA [3d821] | 0.485
TATACTTGCGTAAGACACTTTGATGGGTTGA [3d822] | 0.285
TATACTTGCGTAAGACACTTTGGAGGGTTGA [3d824] | 0.0191
TATACTTGCGTAAGACACTTTGGATGGGTTA [3d826] | 0.0217
TATACTTGCGTAAGACACTTTGGATGGGTTG [3d827] | 0.272
TATACTTGCGTAAGACACTTTGGATGGGTTGA [2d73] | 0.703
TATACTTGCGTAAGACACTTTGGATGGTTGA [3d825] | 0.0234
TATACTTGCGTAAGACACTTTGGTGGGTTGA [3d823] | 0.014
TATACTTGCGTAAGACATTTGGATGGGTTGA [3d820] | 0.722
TATACTTGCGTAAGACCTTTGGATGGGTTGA [3d819] | 0.629

Sequence | fraction ligated
TATACTTGCGTAAGCACTTTGGATGGGTTGA [3d817] | 0.739
TATACTTGCGTAGACACTTTGGATGGGTTGA [3d815] | 0.435
TATACTTGCTAAGACACTTTGGATGGGTTGA [3d813] | 0.669
TATACTTGGTAAGACACTTTGGATGGGTTGA [3d812] | 0.653
TATACTTGTCAAGACACTTTGGATGGGTTGA [3d843] | 0.705
TATACTTGTCGAAACACTTTGGATGGGTTGA [3d858] | 0.756
TATACTTGTCGAAGAACTTTGGATGGGTTGA [3d860] | 0.748
TATACTTGTCGAAGACACTTGGATGGGTTGA [3d863] | 0.743
TATACTTGTCGAAGACACTTTGATGGGTTGA [3d864] | 0.755
TATACTTGTCGAAGACACTTTGGAGGGTTGA [3d866] | 0.0186
TATACTTGTCGAAGACACTTTGGATGGGTTA [3d868] | 0.0412
TATACTTGTCGAAGACACTTTGGATGGGTTG [3d869] | 0.61
TATACTTGTCGAAGACACTTTGGATGGGTTGA [2d76] | 0.761
TATACTTGTCGAAGACACTTTGGATGGTTGA [3d867] | 0.0528
TATACTTGTCGAAGACACTTTGGTGGGTTGA [3d865] | 0.0282
TATACTTGTCGAAGACATTTGGATGGGTTGA [3d862] | 0.762
TATACTTGTCGAAGACCTTTGGATGGGTTGA [3d861] | 0.478
TATACTTGTCGAAGCACTTTGGATGGGTTGA [3d859] | 0.703
TATACTTGTCGAGACACTTTGGATGGGTTGA [3d857] | 0.704
TATACTTGTCGTAAAACTTTGGATGGGTTGA [3d883] | 0.799
TATACTTGTCGTAAACACTTGGATGGGTTGA [3d886] | 0.227
TATACTTGTCGTAAACACTTTGATGGGTTGA [3d887] | 0.182
TATACTTGTCGTAAACACTTTGGAGGGTTGA [3d889] | 0.0111

Sequence | fraction ligated
TATACTTGTCGTAAACACTTTGGATGGGTTA [3d891] | 0.00216
TATACTTGTCGTAAACACTTTGGATGGGTTG [3d892] | 0.0953
TATACTTGTCGTAAACACTTTGGATGGGTTGA [2d78] | 0.493
TATACTTGTCGTAAACACTTTGGATGGTTGA [3d890] | 0.0192
TATACTTGTCGTAAACACTTTGGTGGGTTGA [3d888] | 0.019
TATACTTGTCGTAAACATTTGGATGGGTTGA [3d885] | 0.78
TATACTTGTCGTAAACCTTTGGATGGGTTGA [3d884] | 0.494
TATACTTGTCGTAACACTTTGGATGGGTTGA [3d871] | 0.27
TATACTTGTCGTAAGAACTTGGATGGGTTGA [3d904] | 0.717
TATACTTGTCGTAAGAACTTTGATGGGTTGA [3d905] | 0.794
TATACTTGTCGTAAGAACTTTGGAGGGTTGA [3d907] | 0.032
TATACTTGTCGTAAGAACTTTGGATGGGTTA [3d909] | 0.0459
TATACTTGTCGTAAGAACTTTGGATGGGTTG [3d910] | 0.724
TATACTTGTCGTAAGAACTTTGGATGGGTTGA [2d80] | 0.786
TATACTTGTCGTAAGAACTTTGGATGGTTGA [3d908] | 0.0441
TATACTTGTCGTAAGAACTTTGGTGGGTTGA [3d906] | 0.0323
TATACTTGTCGTAAGAATTTGGATGGGTTGA [3d903] | 0.769
TATACTTGTCGTAAGACACTGGATGGGTTGA [3d925] | 0.74
TATACTTGTCGTAAGACACTTGATGGGTTGA [3d926] | 0.765
TATACTTGTCGTAAGACACTTGGAGGGTTGA [3d928] | 0.0325
TATACTTGTCGTAAGACACTTGGATGGGTTA [3d930] | 0.0948
TATACTTGTCGTAAGACACTTGGATGGGTTG [3d931] | 0.756
TATACTTGTCGTAAGACACTTGGATGGGTTGA [2d83] | 0.785

Sequence | fraction ligated
TATACTTGTCGTAAGACACTTGGATGGTTGA [3d929] | 0.0929
TATACTTGTCGTAAGACACTTGGTGGGTTGA [3d927] | 0.049
TATACTTGTCGTAAGACACTTTATGGGTTGA [3d932] | 0.0481
TATACTTGTCGTAAGACACTTTGAGGGTTGA [3d934] | 0.0304
TATACTTGTCGTAAGACACTTTGATGGGTTA [3d936] | 0.0174
TATACTTGTCGTAAGACACTTTGATGGGTTG [3d937] | 0.537
TATACTTGTCGTAAGACACTTTGATGGGTTGA [2d84] | 0.794
TATACTTGTCGTAAGACACTTTGATGGTTGA [3d935] | 0.0546
TATACTTGTCGTAAGACACTTTGGAGGGTTA [3d943] | 0.00392
TATACTTGTCGTAAGACACTTTGGAGGGTTG [3d944] | 0.00819
TATACTTGTCGTAAGACACTTTGGAGGGTTGA [2d86] | 0.0419
TATACTTGTCGTAAGACACTTTGGAGGTTGA [3d942] | 0.00359
TATACTTGTCGTAAGACACTTTGGATGGGTT [3d947] | 0.00683
TATACTTGTCGTAAGACACTTTGGATGGGTTA [2d88] | 0.0592
TATACTTGTCGTAAGACACTTTGGATGGGTTG [2d89] | 0.733
TATACTTGTCGTAAGACACTTTGGATGGGTTGA [1d4] | 0.791
TATACTTGTCGTAAGACACTTTGGATGGTTA [3d945] | 0.0396
TATACTTGTCGTAAGACACTTTGGATGGTTG [3d946] | 0.0597
TATACTTGTCGTAAGACACTTTGGATGGTTGA [2d87] | 0.127
TATACTTGTCGTAAGACACTTTGGGGGTTGA [3d938] | 0.0526
TATACTTGTCGTAAGACACTTTGGTGGGTTA [3d940] | 0.00259
